From the MegaScale stability set (Tsuboyama et al. 2023)

B1: EEHEE_rd3_1049 (parent)
chain: TTVKLGDIKVTFDNPEKAKKYAQKLAKIYQLTVHVHGDTIHVK
B2: 1ZHC (parent)
chain: HEFRDEISVLKANNPHFDKIFEKHNQLDDDIKTAEQQNASDAEVSHMKKQKLKLKDEIHSMIIEYREK

Variants of: B1
Test: folding stability dG (cDNA display proteolysis); higher = more stable
Settings: PBS, room temperature

Folding stability dG [kcal/mol] of substitutions, site by site:
Y29: Q 0.374 | P 0.516 | N 0.582 | F 2.11 | L 1.87 | V 0.558 | G 0.581 | M 1.26 | K 0.669 | H 1.31 | T 0.658 | S 0.482 | I 0.716 | E 0.087 | R 0.806 | W 1.67
Q30: Y 1.65 | L 1.48 | A 1.89 | G 3.23 | M 1.92 | R 1.98 | T 1.34 | N 2.58 | V 1.24 | F 1.87 | W 1.71 | E 1.62 | H 2.42 | D 2.08 | P 0.614 | S 2.06 | I 1.28 | K 2.2
H41: E 2.44 | G 0.476 | Q 1.55 | L 2.17 | N 1.32 | A 1.26 | C 2.41 | V 2.44 | Y 2.6 | P 0.283 | F 2.37 | R 1.25 | M 1.86 | W 2.31 | T 2.23 | S 1.65 | D 1.49 | K 1.1 | I 2.58
V35: C 2.12 | R 1.27 | F 2.08 | W 1.99 | H 1.57 | S 1.17 | D 1.57 | I 2.26 | E 1.56 | A 1.34 | G 0.496 | Q 1.78 | N 1.09 | Y 2.14 | K 1.24 | T 1.5 | L 1.7 | P 0.957
I40: Y 1.66 | D 0.287 | M 1.16 | H 0.576 | L 1.66 | W 1.28 | C 0.854 | Q 0.438 | V 1.3 | P 0.463 | R 0.214 | K 0.443 | E 0.224 | S 0.541 | F 1.6 | A 0.282 | G 0.535 | N 0.239 | T 0.449
H34: I 2.44 | R 1.64 | G 0.853 | P -0.084 | Y 2.39 | M 2.08 | K 1.71 | E 2.46 | F 2.39 | T 2.12 | C 3.12 | A 1.9 | Q 2.11 | W 2.15 | V 2.59 | N 1.34 | D 1.58 | S 2.03 | L 2.06
D38: Q 1.85 | V 1.57 | R 1.86 | P 1.42 | K 1.85 | W 1.76 | H 1.95 | N 2.47 | S 2.16 | T 2 | I 1.6 | Y 1.47 | F 1.7 | E 1.47 | M 1.97 | G 1.6 | C 2.12 | A 1.94 | L 1.83
T32: Q 1.87 | N 1.43 | G 1.32 | W 1.48 | C 2.77 | Y 1.69 | K 1.63 | F 1.81 | V 2.21 | H 1.6 | R 1.4 | E 1.82 | P 0.612 | M 1.75 | A 1.79 | D 1.33 | I 2.01 | L 1.6 | S 1.94
T39: R 0.835 | D 0.923 | H 1.58 | A 1.13 | M 1.96 | Y 1.71 | Q 1.36 | E 1.82 | N 1.06 | W 1.55 | I 2.27 | F 1.77 | L 1.81 | C 2.26 | G 0.726 | S 1.24 | P 0.457 | K 0.943 | V 2.23
H36: K 1.96 | G 1.16 | E 2.66 | A 2.12 | I 2.73 | V 2.61 | M 2.46 | L 2.34 | Y 2.19 | S 2.19 | N 2.04 | P 0.039 | Q 2.34 | W 1.99 | T 2.07 | F 2.17 | C 3.31 | R 1.96 | D 2.58
K43: E 1.91 | S 2.17 | W 2.48 | F 2.85 | T 2.48 | M 2.56 | Q 2.16 | R 2.36 | P 0.706 | L 2.57 | A 2.07 | N 1.58 | Y 2.64 | I 2.62 | D 1.61 | G 2.51 | V 2.68 | H 2.19 | C 3.65
G37: P 0.698 | E 1.3 | M 1.22 | A 1.28 | L 1.31 | K 1.24 | D 1.22 | N 1.3 | V 1.05 | T 0.847 | I 1.04 | F 1.38 | W 1.25 | S 1 | Y 1.24 | H 1.05 | R 1.13 | Q 1.27
V33: K -0.112 | E 0.147 | Y 1.54 | F 1.6 | W 1.85 | L 2.1 | R -0.171 | A 0.869 | I 2.37 | P 0.242 | D -0.143 | N -0.39 | T 1.11 | Q 0.334 | S 0.464 | C 2.12 | H 0.305 | M 1.78 | G 0.145
V42: Q 0.328 | Y 0.874 | E 0.303 | F 1.95 | S 0.478 | R 0.284 | G 0.341 | H 0.289 | K 0.386 | N 0.487 | T 0.607 | P 0.257 | I 2.02 | M 1.7 | L 2.83 | D 0.236 | A 0.602 | C 1.79 | W 0.918
L31: K 0.541 | M 2.18 | G 1.66 | V 1.08 | P -0.519 | E 0.002 | S 0.893 | N 0.271 | I 1.05 | D -0.096 | Q 0.409 | Y 1.31 | R 0.613 | H 0.811 | A 1.56 | F 1.49 | T 1.06 | W 1.26

Variants of: B2
Test: as above
Settings: PBS, room temperature

Folding stability dG [kcal/mol] of substitutions, site by site:
H1: F 1.05 | P 0.497 | Q 0.787 | N 0.835 | G 0.836 | I 0.939 | Y 0.73 | E 1.23 | L 1.12 | W 1.34 | T 0.856 | V 0.768 | K 0.855 | R 0.829 | S 1.03 | M 1.11 | D 1.28 | A 0.874
E2: V 1.2 | N 0.525 | H 0.917 | T 0.802 | D 0.711 | Q 1.07 | G 0.827 | A 1.29 | R 1.19 | Y 1 | W 1.66 | S 0.328 | M 0.855 | L 1.08 | F 0.966 | I 0.998 | P 0.82 | K 0.746
R4: D 1.04 | A 1.26
F3: V 0.222 | Q 0.544 | K 0.26 | S 0.019 | L 1.04 | E 0.242 | W 1.15 | G 0.249 | Y 1.05 | N 0.409 | R -0.674 | H 0.635 | I 0.418 | P 0.015 | D 0.364 | M 0.267 | T 0.328 | A 0.526
